Assays:
[1] = Enzymatic activity of purified recombinant PR-3 on Boc-Ala-ONP; format: biochemical, human
Experimental: In order to generate therapeutic-grade PR-3, the Mono-S purified recombinant PR-3 (obtained as described in Example 16) was subjected to size-exclusion chromatography. 0.8 mg of protein from the Mono-S pool was concentrated to 2 mg/ml by Amicon YM10 ultrafiltration and loaded onto a S-300 HR column (1.6×60 cm. Pharmacia Biotechnology, Inc., NJ) and chromatographed with a mobile phase of PBS containing 0.04% Triton X-100. Fractions enriched in PR-3 were detected by assaying for enzymatic activity (Boc-Ala-ONP assay) and analyzing on SDS-PAGE with Coomassie blue staining. A single band of 28 kD was observed. The PR-3 eluted with a retention time correlating to an apparent molecular mass of 35 kD as compared to BSA and chymotrypsinogen A chromatographed in the same buffer. This process produced PR-3 that was ≧95% pure with an overall recovery of about 25% and a lipopolysaccharide content of ≦about 10 ng per mg of protein as measured using an Limulus Amoebocyte Lysate Assay (Associates of Cape Cod, Inc., Woods Hole, Mass.). The purified enzyme has a specific activity of approximately 30 units per mg (where a unit is defined as 1 micromole of product produced from cleavage of Boc-Ala-ONP permin. at 25° C., pH 7.5) and a Kcat of approximately 12 per second.

[2] = Storage stability of active recombinant PR-3; format: physicochemical; settings: 4° C.; phosphate buffer pH 7.0 with 0.1% Triton X-100, NaCl eluate
Experimental: The proPR-3 was purified as described above through the Mono-S-Sepharose step and the DPPI activation. At the end of the activation reaction, the PR-3 was diluted 3-fold using deionized water and loaded onto a Pharmacia Mono-S column, previously equilibrated in loading buffer B (10 mM sodium phosphate buffer, pH 7.0, containing 0.1% (v/v) Triton X-100). After washing the column with three bed volumes of loading buffer B, the column was eluted with a 20-minute, 0-0.8 M sodium chloride gradient at 1 ml/min flow rate. PR-3 eluted as the only major peak of protein in the gradient. PR-3 activity was measured across the column by diluting 10 μl of each fraction into 100 mM sodium phosphate buffer containing 10% acetonitrile and 0.5 mM Boc-Ala-ONp. The absorbance at 402 nm of each assay sample was measured after approximately 10 min. Fractions containing activated PR-3 were pooled and stored at 4° C. […] The active PR-3 was stable over 1 month at 4° C. under these conditions

B1: PR-3: purified active recombinant human PR-3 serine protease produced from proPR-3 in Sf9 cells, activated with DPPI (protein)
chain: MAHRPPSPALASVLLALLLSGAARAAEIVGGHEAQPHSRPYMASLQMRGNPGSHFCGGTLIHPSFVLTAAHCLRDIPQRLVNVVLGAHNVRTQEPTQQHFSVAQVFLNNYDAENKLNDILLIQLSSPANLSASVATVQLPQQDQPVPHGTQCLAMGWGRVGAHDPPAQVLQELNVTVVTFFCRPHNICTFVPRRKAGICFGDSGGPLICDGIIQGIDSFVIWGCATRLFPDFFTRVALYVDWIRSTLRRVEAKGRP
- Kcat ([1]; Boc-Ala-ONP): approximately 12 per second
- specific activity ([1]; unit = 1 micromole product per min at 25° C., pH 7.5): approximately 30 units per mg
- stability on storage [2]: over 1 month
